B1: ADD1 (parent)
chain: LRHSFQKQQREKTRWLNSGRGDEA
B2: KRT18 (parent)
chain: RAQYDELARKNREELDKYWSQQIE

Variants of: B1
Test: protein stability index of a GFP-peptide fusion (GPS, HEK-293T) (PSI 1-6); higher = more stable
Details: c terminus: a fixed tail appended
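Note: lentivirally expressed fusions sorted by FACS into six bins by GFP to DsRed ratio, PSI derived from sequencing read proportions per bin multiplied by bin number.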

Protein stability index, by site and new letter:
R20: L 2.24, A 3.84, E 4.28, N 3.62, H 4.05, I 3.54, M 3.78, T 3.75, G 3.71, P 4.17, F 3.21, C 3.91, Y 3.47, W 3.26, K 4.03, S 4.12, V 3.88, Q 3.95, D 4.88
E23: A 3.98, T 3.48, H 3.23, D 3.6, G 3.64, P 3.75, F 2.28, C 3.54, W 2.77, L 2.38, M 3.25, K 2.73, I 3.24, V 3.47, Y 2.66, S 3.83, Q 3.2, N 3.73, R 3.49
N17: Y 2.91, W 2.59
G19: S 3.81, R 3.65, I 2.73, Q 3.7, L 3.35, N 3.6, D 4.6, F 2.83, K 3.69, C 2.22, E 4.29, P 3.65, H 3.56, T 3.37, Y 3, V 2.82, M 3.57, A 3.82, W 2.63
S18: E 4.28, P 3.93, K 3.67, T 3.51, I 3.85, W 3.51, M 3.36, H 3.19, Q 3.55, A 4.02, N 3.96, V 3.53, C 3.26, F 2.87, L 3.39, Y 3.79, D 3.11, R 2.63, G 3.92
A24: N 4.03, C 3.51, K 4.12, L 3.08, P 3.58, V 3.56, M 3.56, F 2.69, Q 4.03, S 3.9, T 3.48, G 3.96, H 3.31, W 1.65, R 3.93, Y 3.18, I 3.15, D 3.95, E 4.52
D22: W 1.99, V 3.25, T 3.29, L 2.71, S 3.9, F 3.64, C 3.18, I 2.68, H 3.94, G 3.62, Y 2.78, N 3.69, K 3.4, Q 3.74, R 3.73, A 3.57, M 3.47, P 2.83, E 3.89
G21: N 3.43, L 3.64, D 4.42, H 3.2, V 3.59, W 3.03, Q 3.49, I 3.42, C 3.21, S 3.63, K 3.84, T 3.33, Y 3.01, M 3.4, R 3.47, P 3.71, E 3.99, A 4, F 3.39

Variants of: B2
Test: as above
Details: c terminus: a fixed tail appended

Protein stability index of substitutions, site by site:
R1: W 2.12, F 2.47, Q 3.07, E 3.06, L 2.79, D 2.87, V 3.71, T 3.02, A 3.38, N 2.99, M 2.97, Y 2.29, H 2.97, C 2.19, I 2.79, G 3.12, P 3.08, K 2.29, S 3.06
A2: N 2.52, I 2.5, C 2.48, M 2.65, K 2.65, D 3.18, F 2.73, E 3.34, G 2.33, Q 3.07, H 3.23, L 2.51, P 3.13

— the supplement of paper PMC10567573
